Assay results from publication PMC3335157.
pKd: −log10 of the molar value.

How the values were obtained:
[1] = molecular target: Full-length αvβ3 integrin (UniProt P06756); experiment: SPR; BIAcore T100; αvβ3 integrin immobilised via primary amines on a CM5 chip (1341-2655 RU); NC1 α4(IV) injected at several concentrations and flow rates; 25°C; 10 mM Hepes pH 7.4, 150 mM NaCl, 1 mM MgCl2, 2 mM MnCl2, 50 mM β-octyl-D-glucopyranoside; global fit, two-state model
[2] = molecular target: Full-length αvβ3 integrin (UniProt P06756)

Chain of UniProt P06756 (P06756 31-1048, chain 1 of 2): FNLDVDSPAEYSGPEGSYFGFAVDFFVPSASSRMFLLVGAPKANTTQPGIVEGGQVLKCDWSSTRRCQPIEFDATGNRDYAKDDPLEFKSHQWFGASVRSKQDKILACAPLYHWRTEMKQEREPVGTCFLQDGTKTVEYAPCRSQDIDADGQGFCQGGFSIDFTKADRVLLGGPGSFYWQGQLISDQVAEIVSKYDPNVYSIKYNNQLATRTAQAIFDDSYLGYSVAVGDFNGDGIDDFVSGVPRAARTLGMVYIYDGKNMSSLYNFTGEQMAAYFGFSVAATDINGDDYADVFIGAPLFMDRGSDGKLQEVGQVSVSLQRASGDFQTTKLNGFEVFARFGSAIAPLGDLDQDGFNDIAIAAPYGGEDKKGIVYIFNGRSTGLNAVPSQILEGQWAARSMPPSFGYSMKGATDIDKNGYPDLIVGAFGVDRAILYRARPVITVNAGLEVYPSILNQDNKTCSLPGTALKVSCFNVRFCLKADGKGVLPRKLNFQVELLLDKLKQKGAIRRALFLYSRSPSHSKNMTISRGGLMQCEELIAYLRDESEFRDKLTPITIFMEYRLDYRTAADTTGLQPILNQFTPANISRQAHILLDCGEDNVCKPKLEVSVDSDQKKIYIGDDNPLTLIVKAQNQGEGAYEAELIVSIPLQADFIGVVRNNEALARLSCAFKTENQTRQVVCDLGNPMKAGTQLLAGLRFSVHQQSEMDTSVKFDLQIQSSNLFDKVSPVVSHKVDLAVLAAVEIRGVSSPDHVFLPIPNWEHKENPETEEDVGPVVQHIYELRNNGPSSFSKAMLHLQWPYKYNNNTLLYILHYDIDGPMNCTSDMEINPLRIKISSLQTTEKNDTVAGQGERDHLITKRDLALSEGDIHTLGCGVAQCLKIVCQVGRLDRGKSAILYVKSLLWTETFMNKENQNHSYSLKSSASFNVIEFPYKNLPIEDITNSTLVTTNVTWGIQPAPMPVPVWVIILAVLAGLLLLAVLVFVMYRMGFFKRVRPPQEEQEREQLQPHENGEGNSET
Chain of UniProt P06756 (P05106 27-788, chain 2 of 2, further chain): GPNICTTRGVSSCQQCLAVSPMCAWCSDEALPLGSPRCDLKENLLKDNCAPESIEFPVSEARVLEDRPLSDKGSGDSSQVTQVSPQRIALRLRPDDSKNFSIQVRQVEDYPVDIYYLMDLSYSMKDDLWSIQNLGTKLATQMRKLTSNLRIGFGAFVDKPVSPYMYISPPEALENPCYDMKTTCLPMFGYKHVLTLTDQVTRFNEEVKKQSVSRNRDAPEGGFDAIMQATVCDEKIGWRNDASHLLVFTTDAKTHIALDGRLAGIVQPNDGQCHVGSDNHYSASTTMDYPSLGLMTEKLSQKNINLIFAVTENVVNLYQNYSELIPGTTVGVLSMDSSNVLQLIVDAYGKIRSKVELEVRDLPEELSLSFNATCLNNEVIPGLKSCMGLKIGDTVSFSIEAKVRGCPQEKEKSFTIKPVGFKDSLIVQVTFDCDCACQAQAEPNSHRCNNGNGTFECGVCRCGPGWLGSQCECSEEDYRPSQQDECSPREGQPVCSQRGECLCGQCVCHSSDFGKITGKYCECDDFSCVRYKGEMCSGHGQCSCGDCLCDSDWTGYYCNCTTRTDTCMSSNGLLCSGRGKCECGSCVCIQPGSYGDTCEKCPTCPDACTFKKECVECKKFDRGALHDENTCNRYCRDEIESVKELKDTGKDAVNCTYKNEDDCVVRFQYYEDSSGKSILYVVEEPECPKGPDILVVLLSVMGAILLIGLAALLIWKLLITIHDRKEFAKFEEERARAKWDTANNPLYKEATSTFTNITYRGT

pKd [1]: 6.83
adhesion of UACC-903 melanoma cells on recombinant NC1 α4(IV) substratum; change after preincubation of the cells with an anti-αvβ3 integrin blocking antibody (10 µg/mL); irrelevant IgG had no effect [2]: -38%
Substance: Recombinant human NC1 α4(IV) domain (NC1[α4(IV)1-229]) (domain or fragment)
